± gives the uncertainty stated by the source.
B1: Homeobox protein SIX3, residues 212 to 262; numbered along this chain, O95343 (parent)
chain: CFKERTRSLLREWYLQDPYPNPSKKRELAQATGLTPTQVGNWFKNRRQRDR

Variants of: B1
Assay: abundance fitness (aPCA) (normalised: wild type 0, dead -1); higher = more abundant; growth selection in yeast, the domain comes from the species named
Settings: Homo sapiens

| Variant | abundance fitness |
| --- | --- |
| CFKERTRSLLREWYLQDPYPNPSKKRELAQGTGLTPTQVGNWFKNRRQRDR [A31G] | -0.651 ± 0.044 |
| CFKERTRSLLREWYLQDPYPNPSKKRELAQHTGLTPTQVGNWFKNRRQRDR [A31H] | -0.062 ± 0.11 |
| CFKERTRSLLREWYLQDPYPNPSKKRELAQITGLTPTQVGNWFKNRRQRDR [A31I] | -0.148 ± 0.1 |
| CFKERTRSLLREWYLQDPYPNPSKKRELAQKTGLTPTQVGNWFKNRRQRDR [A31K] | -0.094 ± 0.094 |
| CFKERTRSLLREWYLQDPYPNPSKKRELAQLTGLTPTQVGNWFKNRRQRDR [A31L] | 0.088 ± 0.065 |
| CFKERTRSLLREWYLQDPYPNPSKKRELAQMTGLTPTQVGNWFKNRRQRDR [A31M] | -0.087 ± 0.078 |
| CFKERTRSLLREWYLQDPYPNPSKKRELAQNTGLTPTQVGNWFKNRRQRDR [A31N] | -0.506 ± 0.16 |
| CFKERTRSLLREWYLQDPYPNPSKKRELAQPTGLTPTQVGNWFKNRRQRDR [A31P] | -0.892 ± 0.27 |
| CFKERTRSLLREWYLQDPYPNPSKKRELAQQTGLTPTQVGNWFKNRRQRDR [A31Q] | -0.023 ± 0.077 |
| CFKERTRSLLREWYLQDPYPNPSKKRELAQSTGLTPTQVGNWFKNRRQRDR [A31S] | -0.186 ± 0.06 |
| CFKERTRSLLREWYLQDPYPNPSKKRELAQTTGLTPTQVGNWFKNRRQRDR [A31T] | -0.147 ± 0.063 |
| CFKERTRSLLREWYLQDPYPNPSKKRELAQVTGLTPTQVGNWFKNRRQRDR [A31V] | -0.169 ± 0.069 |
| CFKERTRSLLREWYLQDPYPNPSKKRELAQWTGLTPTQVGNWFKNRRQRDR [A31W] | -0.326 ± 0.052 |
| CFKERTRSLLREWYLQDPYPNPSKKRELAQYTGLTPTQVGNWFKNRRQRDR [A31Y] | -0.349 ± 0.069 |
| CFKERTRSLLREWYLQDPYPNPSKKRELAQAAGLTPTQVGNWFKNRRQRDR [T32A] | -0.399 ± 0.079 |
| CFKERTRSLLREWYLQDPYPNPSKKRELAQACGLTPTQVGNWFKNRRQRDR [T32C] | -0.026 ± 0.055 |
| CFKERTRSLLREWYLQDPYPNPSKKRELAQADGLTPTQVGNWFKNRRQRDR [T32D] | -0.96 ± 0.12 |
| CFKERTRSLLREWYLQDPYPNPSKKRELAQAEGLTPTQVGNWFKNRRQRDR [T32E] | -0.908 ± 0.061 |
| CFKERTRSLLREWYLQDPYPNPSKKRELAQAFGLTPTQVGNWFKNRRQRDR [T32F] | -0.922 ± 0.26 |
| CFKERTRSLLREWYLQDPYPNPSKKRELAQAGGLTPTQVGNWFKNRRQRDR [T32G] | -0.903 ± 0.11 |
| CFKERTRSLLREWYLQDPYPNPSKKRELAQAHGLTPTQVGNWFKNRRQRDR [T32H] | 0.036 ± 0.29 |
| CFKERTRSLLREWYLQDPYPNPSKKRELAQAIGLTPTQVGNWFKNRRQRDR [T32I] | -0.591 ± 0.14 |
| CFKERTRSLLREWYLQDPYPNPSKKRELAQAKGLTPTQVGNWFKNRRQRDR [T32K] | -1.02 ± 0.18 |
| CFKERTRSLLREWYLQDPYPNPSKKRELAQALGLTPTQVGNWFKNRRQRDR [T32L] | -0.409 ± 0.072 |
| CFKERTRSLLREWYLQDPYPNPSKKRELAQAMGLTPTQVGNWFKNRRQRDR [T32M] | -0.59 ± 0.11 |
| CFKERTRSLLREWYLQDPYPNPSKKRELAQANGLTPTQVGNWFKNRRQRDR [T32N] | -0.637 ± 0.2 |

| Variant | abundance fitness |
| --- | --- |
| CFKERTRSLLREWYLQDPYPNPSKKRELAQAPGLTPTQVGNWFKNRRQRDR [T32P] | -0.802 ± 0.2 |
| CFKERTRSLLREWYLQDPYPNPSKKRELAQAQGLTPTQVGNWFKNRRQRDR [T32Q] | -1.23 ± 0.39 |
| CFKERTRSLLREWYLQDPYPNPSKKRELAQARGLTPTQVGNWFKNRRQRDR [T32R] | -0.87 ± 0.1 |
| CFKERTRSLLREWYLQDPYPNPSKKRELAQASGLTPTQVGNWFKNRRQRDR [T32S] | -0.43 ± 0.059 |
| CFKERTRSLLREWYLQDPYPNPSKKRELAQAVGLTPTQVGNWFKNRRQRDR [T32V] | -0.257 ± 0.072 |
| CFKERTRSLLREWYLQDPYPNPSKKRELAQAWGLTPTQVGNWFKNRRQRDR [T32W] | -0.821 ± 0.11 |
| CFKERTRSLLREWYLQDPYPNPSKKRELAQAYGLTPTQVGNWFKNRRQRDR [T32Y] | -1 ± 0.19 |
| CFKERTRSLLREWYLQDPYPNPSKKRELAQATALTPTQVGNWFKNRRQRDR [G33A] | -0.674 ± 0.1 |
| CFKERTRSLLREWYLQDPYPNPSKKRELAQATCLTPTQVGNWFKNRRQRDR [G33C] | -0.643 ± 0.12 |
| CFKERTRSLLREWYLQDPYPNPSKKRELAQATDLTPTQVGNWFKNRRQRDR [G33D] | -0.412 ± 0.079 |
| CFKERTRSLLREWYLQDPYPNPSKKRELAQATELTPTQVGNWFKNRRQRDR [G33E] | -0.915 ± 0.12 |
| CFKERTRSLLREWYLQDPYPNPSKKRELAQATFLTPTQVGNWFKNRRQRDR [G33F] | -0.774 ± 0.065 |
| CFKERTRSLLREWYLQDPYPNPSKKRELAQATHLTPTQVGNWFKNRRQRDR [G33H] | -0.542 ± 0.12 |
| CFKERTRSLLREWYLQDPYPNPSKKRELAQATILTPTQVGNWFKNRRQRDR [G33I] | -0.902 ± 0.25 |
| CFKERTRSLLREWYLQDPYPNPSKKRELAQATKLTPTQVGNWFKNRRQRDR [G33K] | -0.494 ± 0.073 |
| CFKERTRSLLREWYLQDPYPNPSKKRELAQATLLTPTQVGNWFKNRRQRDR [G33L] | -0.812 ± 0.057 |
| CFKERTRSLLREWYLQDPYPNPSKKRELAQATMLTPTQVGNWFKNRRQRDR [G33M] | -0.75 ± 0.11 |
| CFKERTRSLLREWYLQDPYPNPSKKRELAQATNLTPTQVGNWFKNRRQRDR [G33N] | 0.029 ± 0.12 |
| CFKERTRSLLREWYLQDPYPNPSKKRELAQATPLTPTQVGNWFKNRRQRDR [G33P] | -0.746 ± 0.16 |
| CFKERTRSLLREWYLQDPYPNPSKKRELAQATQLTPTQVGNWFKNRRQRDR [G33Q] | -0.57 ± 0.087 |
| CFKERTRSLLREWYLQDPYPNPSKKRELAQATRLTPTQVGNWFKNRRQRDR [G33R] | -0.613 ± 0.057 |
| CFKERTRSLLREWYLQDPYPNPSKKRELAQATSLTPTQVGNWFKNRRQRDR [G33S] | -0.555 ± 0.052 |
| CFKERTRSLLREWYLQDPYPNPSKKRELAQATTLTPTQVGNWFKNRRQRDR [G33T] | -0.766 ± 0.17 |
| CFKERTRSLLREWYLQDPYPNPSKKRELAQATVLTPTQVGNWFKNRRQRDR [G33V] | -0.779 ± 0.077 |
| CFKERTRSLLREWYLQDPYPNPSKKRELAQATYLTPTQVGNWFKNRRQRDR [G33Y] | -0.978 ± 0.28 |

Reference: the Human Domainome abundance scans (Beltran et al. 2025)
